Test results: the supplement of paper PMC9170038

Columns and labels:
MS2 coat protein [1] = assay: apparent KD of MS2 coat protein; designed switch direction (-1 OFF switch, 1 ON switch): 1; higher = weaker reporter binding
Summary of the method: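 Apparent KD, taken as the median over clusters for each design, was obtained by curve-fitting normalised cluster fluorescence. Designed RNA switches had been transcribed on Illumina chips by stalled E. coli RNA polymerase and titrated with SNAP-549-labelled MS2 coat protein, doubling from 0.7 or 1.5 nM to 3 µM.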

MS2 coat protein [2] = assay: apparent KD of MS2 coat protein; higher = weaker reporter binding; details: Eterna round: R107
Summary of the method: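 Designed RNA switches were transcribed on-chip from Illumina sequencing clusters. SNAP-549-labelled MS2 coat protein was titrated onto them in twofold steps from 0.7 or 1.5 nM to 3 µM in 100 mM Tris-HCl pH 7.5, 80 mM KCl, 4 mM MgCl2, either without or with constant ligand. Apparent KD reflects the per-design median of normalised cluster binding-curve fits.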

[3] = input ligand: theophylline 20 uM
[4] = input ligand: theophylline 2 mM
[5] = input ligand: tryptophan 2.4 mM

Row | Sequence | apparent KD of MS2 coat protein (MS2 coat protein [1]; input ligand: FMN 200 uM) [µM] | apparent KD of MS2 coat protein (MS2 coat protein [1]; input ligand: microRNA oligo, concentration not stated) [µM] | apparent KD of MS2 coat protein (MS2 coat protein [1]; input ligand: none) [µM] | apparent KD of MS2 coat protein (MS2 coat protein [1]; Eterna round: R95, input ligand: FMN 200 uM) [µM] | apparent KD of MS2 coat protein (MS2 coat protein [1]; Eterna round: R95, input ligand: microRNA oligo, concentration not stated) [µM] | apparent KD of MS2 coat protein (MS2 coat protein [1]; Eterna round: R95, input ligand: none) [µM] | apparent KD of MS2 coat protein (MS2 coat protein [2]; input ligand: arginine 13.2 mM) [µM] | apparent KD of MS2 coat protein (MS2 coat protein [2]; input ligand: none) [µM] | apparent KD of MS2 coat protein (MS2 coat protein [2]; [3]) [µM] | apparent KD of MS2 coat protein (MS2 coat protein [2]; [4]) [µM] | apparent KD of MS2 coat protein (MS2 coat protein [2]; [5]) [µM]
1 | AACAGUCGGCGAGGAUAUGGACAUACGGACUAACCCGUAUGGCUCACAUGAGGAUCACCCAUGUUCUAGAAGGCGCCACUGAAA [Raridi] (Eterna round: R96, puzzle: Same State NG 2) | 0.0146 | 0.0434 | 0.074 | – | – | – | – | – | – | – | –
2 | UUGGUGUAGAUACAGGAUAUGUUGCUCGUAACAUGAGGAUCACCCAUGUAUCUAUGAGAUUAAAUGCAGAAGGGUGCACACCACU [salish99_ss2_r3_087] (puzzle: Same State 2) | – | – | – | 0.0396 | 0.341 | 0.541 | – | – | – | – | –
3 | AGCGCAGGUCCUGAUACCAGAGACAUGAGGAUCACCCAUGUCCGGUGGUCCUGCCACAGGCUCCCUUGGCAGCAGGGCUUGUGCU [Exclusion Theophylline B GF9] | – | – | – | – | – | – | 0.0314 | 0.0287 | 0.0408 | 0.0605 | 0.0291
4 | GCGAUGGAGCGAAGGAGCGGCUAAAUGUAACACAUGAGGAUCACCCAUGUUCCAAGAUGUGGCCAGGUAGGUCGCGCUCCAUCGC [SSAB NP+V+V2 #15] | – | – | – | – | – | – | 0.0618 | 0.175 | 0.229 | 0.185 | 0.144
5 | UGACGAUACCUGGAUACCAGCGACAUGAGGAUCACCCAUGUAUGAGGAUCAGCCAUGAUAUGCCCUUGGCAGCCACGAAAGUCUU [VUVMULLIN] | – | – | – | – | – | – | 0.0168 | 0.0158 | 0.0275 | 0.15 | 0.0186
6 | GAUGAUAUUGCAGAUACCAGACACAUGAGGAUCACCCAUGUCGUUGGGUCGCUGGGUCGUGUCCCUUGGCAGCUGCGAUAUCAUC [#04 Exclusion-TheophyllineB] | – | – | – | – | – | – | 0.028 | – | 0.0526 | – | 0.031
7 | ACCUACACGGAGACGUGUAGGAGUAAUGAUACCAGCAUGGAGACAUGCCCUUGGCAGCGUUACAUGAGGAUCACCCAUGUAGUGC [ETHA #5] | – | – | – | – | – | – | 0.0104 | 0.0107 | 0.0142 | 0.0128 | 0.0129
8 | CUAAUUAAAUCGGCCGCCACUUACUCAUGAGGUAACAACAUGAGGAUCACCCAUGUUUGAGGAUCAAGGACCGGGAUUUAAUUAG [AstrosSSTry#23] | – | – | – | – | – | – | 0.0249 | – | 0.0337 | 0.0301 | –
9 | AAUCGGACUCGUACAGCAUGUUGAGCGGAAGGAGCGGCGAAAGAGCCAGGUAGGUCGCCGCCGACAUGAGGAUCACCCAUGUACG [Orenti] | – | – | – | – | – | – | 0.0273 | 0.119 | 0.177 | 0.258 | 0.11
10 | UUAAUCAUAUAUGAAAACAUAUAUGCAGAAGGAGCGUGAUAAAACACAGGUAGGUCGCUGAAGGGAACAUGAGGAUCACCCAUGU [AstrosSSArgA#2] | – | – | – | – | – | – | 0.0474 | 0.0248 | 0.049 | 0.0315 | 0.0324
11 | ACAUGAGGAUCACCCAUGUACAUCACCCGACGAGGACCGGUACGGCCGCCACUCGGGUAUAUAUAUACAUCGGGUGAUUUUACGU [#22 Tryptophan A Same State] | – | – | – | – | – | – | 0.0274 | – | 0.0574 | 0.0641 | –
